In patent US20070280985A1:

Tests used:
Test in all cases: cell-based or functional assay
Connexin 40 (human) = Connexin 40 (human) (UniProt P36382)
Connexin 43 (human) = Connexin 43 (human) (UniProt P17302)
Connexin 37 (human) = Connexin 37 (human) (UniProt P35212)
Sequence of UniProt P35212 (P35212 whole entry): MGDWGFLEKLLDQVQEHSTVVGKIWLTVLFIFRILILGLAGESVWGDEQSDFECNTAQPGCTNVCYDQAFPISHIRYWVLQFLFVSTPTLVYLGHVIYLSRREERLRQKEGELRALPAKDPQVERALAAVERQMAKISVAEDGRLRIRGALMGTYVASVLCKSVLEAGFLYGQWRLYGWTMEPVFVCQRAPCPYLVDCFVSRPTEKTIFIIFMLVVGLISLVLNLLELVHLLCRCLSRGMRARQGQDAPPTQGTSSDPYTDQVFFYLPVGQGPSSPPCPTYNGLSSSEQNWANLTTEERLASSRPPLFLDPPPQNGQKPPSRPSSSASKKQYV

Sequence of UniProt P36382 (P36382 whole entry): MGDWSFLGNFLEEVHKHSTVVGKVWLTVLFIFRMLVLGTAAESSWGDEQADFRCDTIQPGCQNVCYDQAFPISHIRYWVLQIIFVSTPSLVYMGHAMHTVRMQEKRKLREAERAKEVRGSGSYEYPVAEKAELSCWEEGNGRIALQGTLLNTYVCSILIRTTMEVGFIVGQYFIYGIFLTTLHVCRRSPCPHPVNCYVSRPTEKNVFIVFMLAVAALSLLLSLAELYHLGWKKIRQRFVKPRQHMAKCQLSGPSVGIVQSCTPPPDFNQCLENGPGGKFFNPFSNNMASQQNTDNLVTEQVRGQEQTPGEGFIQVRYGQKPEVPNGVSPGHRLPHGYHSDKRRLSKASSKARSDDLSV
Sequence of UniProt P17302 (P17302 2-382): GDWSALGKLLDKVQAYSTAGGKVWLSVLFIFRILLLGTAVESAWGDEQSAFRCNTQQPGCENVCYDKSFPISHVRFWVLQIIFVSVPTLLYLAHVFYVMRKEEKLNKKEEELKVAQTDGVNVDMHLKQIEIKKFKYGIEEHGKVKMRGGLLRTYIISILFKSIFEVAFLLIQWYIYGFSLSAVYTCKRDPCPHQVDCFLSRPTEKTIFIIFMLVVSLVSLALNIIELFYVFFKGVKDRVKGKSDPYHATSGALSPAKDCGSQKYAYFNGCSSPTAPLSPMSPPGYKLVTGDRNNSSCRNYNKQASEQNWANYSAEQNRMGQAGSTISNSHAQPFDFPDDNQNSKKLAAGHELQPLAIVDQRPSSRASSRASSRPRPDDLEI

Row | Substance | decrease in Lucifer Yellow dye-coupling (GJIC) in HAEC after 5 hours of flow (Connexin 40 (human)) [%] | decrease in Lucifer Yellow dye-coupling (GJIC) in HAEC after 16 hours of flow (Connexin 40 (human)) [%] | Lucifer Yellow dye-coupling (GJIC) in HAEC after 16 hours of flow (Connexin 43 (human)) [%] | decrease in flow-induced GJIC (dye-coupling) in HAEC (Connexin 43 (human)) [%] | Lucifer Yellow dye-coupling (GJIC) in HAEC after 16 hours of flow (Connexin 37 (human)) [%] | decrease in flow-induced GJIC (dye-coupling) in HAEC (Connexin 37 (human)) [%]
1 | mimetic peptide 40Gap27 | 33 | 57 | – | – | – | –
2 | Cx mimetic peptide 43,37Gap27 | – | – | 26 | 25 | 26 | 25
